From paper PMC2994652 (Biochemistry, 2010)
“And” between values parts separate entries of the source, which are not always exact repeats. Equal values may be shown once. Read-outs that look alike come from different tables or passages of the source.

Tests used:
Experiment in all cases: SEC
[1] = target: yeast Cox11-Trx (fusion of the extramembrane domain of yeast Cox11 with E. coli thioredoxin) (yeast)
[2] = target: the molecule itself
[3] = target: the molecule itself; remark: listed apart in the source

Sequence of yeast Cox11-Trx (fusion of the extramembrane domain of yeast Cox11 with E. coli thioredoxin) (domain or fragment) (P19516 106-300 limits assumed): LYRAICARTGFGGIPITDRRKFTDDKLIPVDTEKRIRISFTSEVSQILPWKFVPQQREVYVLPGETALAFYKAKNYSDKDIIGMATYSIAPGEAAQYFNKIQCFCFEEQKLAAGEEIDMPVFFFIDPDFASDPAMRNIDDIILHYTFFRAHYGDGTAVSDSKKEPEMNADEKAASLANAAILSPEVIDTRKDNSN

Row | stoichiometry N [1] | Molecule | stoichiometry N [2] | stoichiometry N [3]
1 | 2 and 4 | yeast Cox11-Trx (fusion of the extramembrane domain of yeast Cox11 with E. coli thioredoxin) (domain or fragment) |  | 
2 |  | C35S Cox11-Trx (domain or fragment, Rhodobacter sphaeroides, UniProt P56940 32-191, looked up) NWFSRVTGFAGTTAVATEAPAEVLDRTVKVRFDASREAGMPWEFRPLQREMKLKIGETGLAFYEAYNPTDRTVAGTASYNVTPDAAGGYFAKIACFCFTEQVLAPGERVEMPVTFYVDPAIIDDPDGRYVRQITLSYTFHETALTEEQAALAAESATDVN | 2 and 4 | 
3 |  | Y110E Cox11-Trx (domain or fragment, Rhodobacter sphaeroides, UniProt P56940 32-191, looked up) NWFCRVTGFAGTTAVATEAPAEVLDRTVKVRFDASREAGMPWEFRPLQREMKLKIGETGLAFYEAYNPTDRTVAGTASENVTPDAAGGYFAKIACFCFTEQVLAPGERVEMPVTFYVDPAIIDDPDGRYVRQITLSYTFHETALTEEQAALAAESATDVN | 4 | 
4 |  | K123E Cox11-Trx (domain or fragment, Rhodobacter sphaeroides, UniProt P56940 32-191, looked up) NWFCRVTGFAGTTAVATEAPAEVLDRTVKVRFDASREAGMPWEFRPLQREMKLKIGETGLAFYEAYNPTDRTVAGTASYNVTPDAAGGYFAEIACFCFTEQVLAPGERVEMPVTFYVDPAIIDDPDGRYVRQITLSYTFHETALTEEQAALAAESATDVN |  | 4
5 |  | K123L-E131K Cox11-Trx (domain or fragment, Rhodobacter sphaeroides, UniProt P56940 32-191, looked up) NWFCRVTGFAGTTAVATEAPAEVLDRTVKVRFDASREAGMPWEFRPLQREMKLKIGETGLAFYEAYNPTDRTVAGTASYNVTPDAAGGYFALIACFCFTKQVLAPGERVEMPVTFYVDPAIIDDPDGRYVRQITLSYTFHETALTEEQAALAAESATDVN | 2 | 4
6 |  | F127I Cox11-Trx (domain or fragment, Rhodobacter sphaeroides, UniProt P56940 32-191, looked up) NWFCRVTGFAGTTAVATEAPAEVLDRTVKVRFDASREAGMPWEFRPLQREMKLKIGETGLAFYEAYNPTDRTVAGTASYNVTPDAAGGYFAKIACICFTEQVLAPGERVEMPVTFYVDPAIIDDPDGRYVRQITLSYTFHETALTEEQAALAAESATDVN |  | 4
7 |  | C128A Cox11-Trx (domain or fragment, Rhodobacter sphaeroides, UniProt P56940 32-191, looked up) NWFCRVTGFAGTTAVATEAPAEVLDRTVKVRFDASREAGMPWEFRPLQREMKLKIGETGLAFYEAYNPTDRTVAGTASYNVTPDAAGGYFAKIACFAFTEQVLAPGERVEMPVTFYVDPAIIDDPDGRYVRQITLSYTFHETALTEEQAALAAESATDVN |  | 4
8 |  | F129Y Cox11-Trx (domain or fragment, Rhodobacter sphaeroides, UniProt P56940 32-191, looked up) NWFCRVTGFAGTTAVATEAPAEVLDRTVKVRFDASREAGMPWEFRPLQREMKLKIGETGLAFYEAYNPTDRTVAGTASYNVTPDAAGGYFAKIACFCYTEQVLAPGERVEMPVTFYVDPAIIDDPDGRYVRQITLSYTFHETALTEEQAALAAESATDVN |  | 4
9 |  | Y110R Cox11-Trx (domain or fragment, Rhodobacter sphaeroides, UniProt P56940 32-191, looked up) NWFCRVTGFAGTTAVATEAPAEVLDRTVKVRFDASREAGMPWEFRPLQREMKLKIGETGLAFYEAYNPTDRTVAGTASRNVTPDAAGGYFAKIACFCFTEQVLAPGERVEMPVTFYVDPAIIDDPDGRYVRQITLSYTFHETALTEEQAALAAESATDVN | 4 | 
10 |  | C126A-C128A Cox11-Trx (domain or fragment, Rhodobacter sphaeroides, UniProt P56940 32-191, looked up) NWFCRVTGFAGTTAVATEAPAEVLDRTVKVRFDASREAGMPWEFRPLQREMKLKIGETGLAFYEAYNPTDRTVAGTASYNVTPDAAGGYFAKIAAFAFTEQVLAPGERVEMPVTFYVDPAIIDDPDGRYVRQITLSYTFHETALTEEQAALAAESATDVN |  | 4
11 |  | K123L Cox11-Trx (domain or fragment, Rhodobacter sphaeroides, UniProt P56940 32-191, looked up) NWFCRVTGFAGTTAVATEAPAEVLDRTVKVRFDASREAGMPWEFRPLQREMKLKIGETGLAFYEAYNPTDRTVAGTASYNVTPDAAGGYFALIACFCFTEQVLAPGERVEMPVTFYVDPAIIDDPDGRYVRQITLSYTFHETALTEEQAALAAESATDVN | 2 | 4
12 |  | C126A Cox11-Trx (domain or fragment, Rhodobacter sphaeroides, UniProt P56940 32-191, looked up) NWFCRVTGFAGTTAVATEAPAEVLDRTVKVRFDASREAGMPWEFRPLQREMKLKIGETGLAFYEAYNPTDRTVAGTASYNVTPDAAGGYFAKIAAFCFTEQVLAPGERVEMPVTFYVDPAIIDDPDGRYVRQITLSYTFHETALTEEQAALAAESATDVN |  | 4
13 |  | F127Y Cox11-Trx (domain or fragment, Rhodobacter sphaeroides, UniProt P56940 32-191, looked up) NWFCRVTGFAGTTAVATEAPAEVLDRTVKVRFDASREAGMPWEFRPLQREMKLKIGETGLAFYEAYNPTDRTVAGTASYNVTPDAAGGYFAKIACYCFTEQVLAPGERVEMPVTFYVDPAIIDDPDGRYVRQITLSYTFHETALTEEQAALAAESATDVN |  | 4
14 |  | K123R Cox11-Trx (domain or fragment, Rhodobacter sphaeroides, UniProt P56940 32-191, looked up) NWFCRVTGFAGTTAVATEAPAEVLDRTVKVRFDASREAGMPWEFRPLQREMKLKIGETGLAFYEAYNPTDRTVAGTASYNVTPDAAGGYFARIACFCFTEQVLAPGERVEMPVTFYVDPAIIDDPDGRYVRQITLSYTFHETALTEEQAALAAESATDVN |  | 4
15 |  | E131K Cox11-Trx (domain or fragment, Rhodobacter sphaeroides, UniProt P56940 32-191, looked up) NWFCRVTGFAGTTAVATEAPAEVLDRTVKVRFDASREAGMPWEFRPLQREMKLKIGETGLAFYEAYNPTDRTVAGTASYNVTPDAAGGYFAKIACFCFTKQVLAPGERVEMPVTFYVDPAIIDDPDGRYVRQITLSYTFHETALTEEQAALAAESATDVN |  | 4
16 |  | Cox11 domain of R. sphaeroides Cox11-Trx after cleavage from Trx (domain or fragment, Rhodobacter sphaeroides, UniProt P56940 32-191, looked up) NWFCRVTGFAGTTAVATEAPAEVLDRTVKVRFDASREAGMPWEFRPLQREMKLKIGETGLAFYEAYNPTDRTVAGTASYNVTPDAAGGYFAKIACFCFTEQVLAPGERVEMPVTFYVDPAIIDDPDGRYVRQITLSYTFHETALTEEQAALAAESATDVN | 4 | 
17 |  | C35S-C126A-C128A Cox11-Trx (domain or fragment, Rhodobacter sphaeroides, UniProt P56940 32-191, looked up) NWFSRVTGFAGTTAVATEAPAEVLDRTVKVRFDASREAGMPWEFRPLQREMKLKIGETGLAFYEAYNPTDRTVAGTASYNVTPDAAGGYFAKIAAFAFTEQVLAPGERVEMPVTFYVDPAIIDDPDGRYVRQITLSYTFHETALTEEQAALAAESATDVN |  | 4
